Data on 2 molecules can be found in publication PMC11087509, “Multimodal binding and inhibition of bacterial ribosomes by the antimicrobial peptides Api137 and Api88” (Nature Communications, 2024).

What all share (assay): fluorescence polarisation; cf-labeled peptide (10 µL of 40 nmol/L) added to a 2-fold dilution series (22 steps, 10 µL) of pure 70S ribosome, 50S or 30S subunit; ribosome preparation buffer (20 mmol/L HEPES-KOH, 6 mmol/L MgCl2, 30 mmol/L NH4Cl, pH 7.6); 28 ± 1 °C, 90 min; apparent Kd (average over at least two or three sites)
Holding throughout (details): both partners purified
(In fluorescence polarisation assays a small probe gives low polarisation when free and higher when bound to something large.)

The target in assay [1] is purified E. coli 30S ribosomal subunit (E. coli (endogenous in MRE600)).
In assay [2] the target is purified E. coli 70S ribosome (E. coli (endogenous in BW25113), UniProt P60723 1-201; P61175 1-110; P0ADZ0 1-100; P0A7M6 1-63; P0A7J3 1-165).
In assay [3] the target is purified E. coli 50S ribosomal subunit (E. coli (endogenous in MRE600), UniProt P60723 1-201; P61175 1-110; P0ADZ0 1-100; P0A7M6 1-63; P0A7J3 1-165).

[ ]: non-standard residue; d: D form. Gu = N-terminal tetramethylguanidine; Orn = NCCC[C@H](N)C(=O)O

Take Gu-[Orn](5(6)‑carboxyfluorescein)NNRPVYIPRPRPPHPRL-NH2 [cf-Api88 (5(6)-carboxyfluorescein-labeled Api88, Gu-ONNRPVYIPRPRPPHPRL-NH2)]: the “fold weaker binding than to the 50S subunit” value in assay [1] is around 23 fold. Further, the Kd in assay [2] is 1800 nM; in assay [3], 600 nM.

For Gu-[Orn](5(6)‑carboxyfluorescein)NNRPVYIPRPRPPHPRL-OH [cf-Api137 (5(6)-carboxyfluorescein-labeled Api137, Gu-ONNRPVYIPRPRPPHPRL-OH)], the “fold weaker binding than to the 50S subunit” value in assay [1] is around 10 fold. The Kd was found to be 4730 nM in assay [2] and 2200 nM in assay [3].
